Measurements taken from patent publication US20190270798A1 (CHILDREN S MEDICAL CENTER, published 2019).

How the values were obtained:
[1] = molecular target: T1, mouse LRRC33 (mouse, UniProt Q8BMT4 20-693, limits assumed); experiment: immunoprecipitation from 293T transfectant lysates, blot
T1 construct: also called mouse LRRC33 complexes
T1 sequence (looked up): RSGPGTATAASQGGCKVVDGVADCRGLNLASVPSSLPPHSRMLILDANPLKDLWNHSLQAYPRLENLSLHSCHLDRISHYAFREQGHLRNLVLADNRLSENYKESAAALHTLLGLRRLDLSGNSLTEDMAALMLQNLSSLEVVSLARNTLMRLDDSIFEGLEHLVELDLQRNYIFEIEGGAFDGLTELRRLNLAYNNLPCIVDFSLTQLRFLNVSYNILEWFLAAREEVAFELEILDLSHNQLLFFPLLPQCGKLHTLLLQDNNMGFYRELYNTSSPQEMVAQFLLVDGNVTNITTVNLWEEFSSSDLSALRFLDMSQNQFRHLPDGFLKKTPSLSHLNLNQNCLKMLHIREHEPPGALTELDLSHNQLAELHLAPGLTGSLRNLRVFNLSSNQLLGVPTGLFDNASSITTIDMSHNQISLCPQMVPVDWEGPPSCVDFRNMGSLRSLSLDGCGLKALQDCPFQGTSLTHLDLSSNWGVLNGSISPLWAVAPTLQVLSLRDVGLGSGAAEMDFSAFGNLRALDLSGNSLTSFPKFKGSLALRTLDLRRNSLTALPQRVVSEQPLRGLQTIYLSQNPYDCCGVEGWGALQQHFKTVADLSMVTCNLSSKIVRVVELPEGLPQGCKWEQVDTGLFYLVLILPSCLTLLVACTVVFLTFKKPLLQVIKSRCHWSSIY

[2] = molecular target: T2, human Glycoprotein A Repetitions Predominant (GARP) (human, UniProt Q14392 20-662); experiment: immunoprecipitation from L1.2 transfectant lysates, blot
T2 construct: whole, on cells; tested in cell lysates; also called LRRC32; FLAG-tagged GARP
T2 sequence (looked up): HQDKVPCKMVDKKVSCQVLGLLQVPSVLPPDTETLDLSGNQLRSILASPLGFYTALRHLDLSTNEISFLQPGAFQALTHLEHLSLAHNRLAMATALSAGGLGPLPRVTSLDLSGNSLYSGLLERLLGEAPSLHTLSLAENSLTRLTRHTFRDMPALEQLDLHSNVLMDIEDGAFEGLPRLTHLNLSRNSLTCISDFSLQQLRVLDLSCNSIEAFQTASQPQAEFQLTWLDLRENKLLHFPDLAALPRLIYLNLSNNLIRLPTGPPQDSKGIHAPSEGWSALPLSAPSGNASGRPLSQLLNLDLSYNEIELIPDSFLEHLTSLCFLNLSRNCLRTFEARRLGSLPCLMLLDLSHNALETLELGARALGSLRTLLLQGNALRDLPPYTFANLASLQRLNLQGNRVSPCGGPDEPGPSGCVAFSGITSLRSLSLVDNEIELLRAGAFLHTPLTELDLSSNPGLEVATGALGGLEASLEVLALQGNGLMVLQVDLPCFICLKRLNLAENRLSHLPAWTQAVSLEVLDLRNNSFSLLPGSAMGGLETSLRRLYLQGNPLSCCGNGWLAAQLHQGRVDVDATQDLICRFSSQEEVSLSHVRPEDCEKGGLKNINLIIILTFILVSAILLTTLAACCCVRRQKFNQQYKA
Method: Cell surface expression of FLAG-LRRC33, FLAG-33-32-X1, and FLAG-33-32-X5 were measured using FACS. Numbers show the MFI (mean fluorescence intensity). (B, C) The specificity of anti-LRRC33 antibody.
Anti-LRRC33 mAb was generated by immunizing Lac33^{-/-} mice with L1.2 cells that stably express the 33-32-X1 chimera on the cell surface. Hybridoma supernatants were screened by immunofluorescence flow cytometry (FACS) and an LRRC33 positive hybridoma was identified. This anti-LRRC33 mAb only recognizes human LRRC33, not GARP, in L1.2 transfectants by immunoprecipitates (IP) (FIG. 8B, line 2, 3).
After 48 hours of transfection, cells were collected and lysed in IP lysis buffer (50 mM Tris pH7.4, 150 mM NaCl, 2 mM EDTA, 1% NP-40), which was supplemented with a protease inhibitor cocktail (Roche) and subjected to western blot analysis or were used for immunoprecipitation with the indicated antibody. Performed as described previously {Wang et al, 2012}. L1.2 cells were transfected with indicated plasmid using electroporation. […]

binding result [1]: no binding
binding result [2]: no binding
B1: anti-LRRC33 monoclonal antibody (mAb) (antibody, V domains shown)
VH: EFQLQQSGPELVKPGASVKMSCKASGYSFTDSYMDWVKQSNGKTLEWIGLINPKYGTTTYNQKFKGKATLTVDQSSSTAYMQLNSLTSEDSAVYFCASLYYDYSAWFAYWGQGTLVTVSA
VL: QAVVTQESALTTSPGETVTLTCRSSTGAVTTSNYANWVQEKPDHLFTGLIGGTNNRAPGVPARFSGSLIGDKAALIITGAQTEDEAIYFCGLWFSNRWVFGGGTKLTVV
notes: Mouse hybridoma mAb raised in Lrrc33-/- mice against L1.2 cells expressing the 33-32-X1 chimera; also called anti-LRRC33 mAb; anti-LRRC33 antibody
